Experimental data as given in patent US20210070833A1 (GI INNOVATION, published 2021).

B1: FcεRIαECD-Fc2 (Fc fusion)
chain: VPQKPKVSLNPPWNRIFKGENVTLTCNGNNFFEVSSTKWFHNGSLSEETNSSLNIVNAKFEDSGEYKCQHQQVNESEPVYLEVFSDWLLLQASAEVVMEGQPLFLRCHGWRNWDVYKVIYYKDGEALKYWYENHNISITNATVEDSGTYYCTGKVWQLDYESEPLNITVIKAPREKYWLQRNTGRGGEEKKGSKEKEEQEERETKTPECPSHTQPLGVFLFPPKPKDTLMISRTPEVTCVVVDVSQEDPEVQFNWYVDGVEVHNAKTKPREEQFNSTYRVVSVLTVLHQDWLNGKEYKCKVSNKGLPSSIEKTISKAKGQPREPQVYTLPPSQEEMTKNQVSLTCLVKGFYPSDIAVEWESNGQPENNYKTTPPVLDSDGSFFLYSRLTVDKSRWQEGNVFSCSVMHEALHNHYTQKSLSLSLGK
B2: FcεRIαECD-Fc2ST (Fc fusion)
chain: B1 chain
modifications: sialic acid added (co-expressed with α-2,6-sialic acid transferase)
notes: also called IgETRAP; FcεRIαECD-Fc2 + a2,6-ST

Key:
mouse IgE = target: T1, mouse IgE (mouse, UniProt P06336 1-421); experiment: cell-based or functional assay
T1 heavy (looked up): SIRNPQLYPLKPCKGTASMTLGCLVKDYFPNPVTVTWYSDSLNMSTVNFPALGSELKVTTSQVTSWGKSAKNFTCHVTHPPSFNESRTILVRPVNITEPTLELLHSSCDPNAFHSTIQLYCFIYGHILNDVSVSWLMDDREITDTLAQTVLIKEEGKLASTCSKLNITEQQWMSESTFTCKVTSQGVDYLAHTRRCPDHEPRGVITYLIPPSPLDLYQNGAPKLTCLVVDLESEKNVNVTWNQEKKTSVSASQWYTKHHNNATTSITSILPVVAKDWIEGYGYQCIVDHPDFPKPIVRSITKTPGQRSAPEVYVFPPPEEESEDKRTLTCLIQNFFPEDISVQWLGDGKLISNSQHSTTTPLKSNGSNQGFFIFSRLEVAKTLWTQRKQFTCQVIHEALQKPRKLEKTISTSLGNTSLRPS

human IgE = target: T2, human IgE (human, UniProt P01854-1 1-428); experiment: cell-based or functional assay
T2 heavy (looked up): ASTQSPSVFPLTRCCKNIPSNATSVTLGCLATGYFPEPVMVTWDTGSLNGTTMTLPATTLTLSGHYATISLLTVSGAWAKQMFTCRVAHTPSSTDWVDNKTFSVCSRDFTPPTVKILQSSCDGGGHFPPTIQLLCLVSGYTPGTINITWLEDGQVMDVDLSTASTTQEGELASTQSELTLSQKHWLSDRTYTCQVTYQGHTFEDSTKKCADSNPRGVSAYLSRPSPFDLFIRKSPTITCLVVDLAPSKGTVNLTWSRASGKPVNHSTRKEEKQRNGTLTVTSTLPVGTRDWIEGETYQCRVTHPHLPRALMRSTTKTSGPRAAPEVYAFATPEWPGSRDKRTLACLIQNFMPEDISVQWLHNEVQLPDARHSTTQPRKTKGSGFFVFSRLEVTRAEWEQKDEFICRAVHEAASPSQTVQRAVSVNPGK

IgE = target: T3, IgE; experiment: SPR (ProteOn XPR36), KD against omalizumab as reference; the same paragraph ties 69-fold to FcεRIαECD-Fc2ST
T3 construct: also called immunoglobulin E
Procedure: The experiments were conducted by identifying zero base using 25 mM NaOH as a regeneration buffer, and then repeating the above steps. Thereafter, a binding curve was identified using a protein binding analyzer (ProteOn XPR36, Bio-Rad Laboratories, Inc., USA).

FcγRI = target: T4, FcγRI; experiment: BLI (Octet RED384), FcγRI immobilised on AR2G biosensor, IgETRAP 0.25-4 µM in solution
T4 construct: not in the MOLECULES list; also called IgG receptor FcγRI; Fc gamma receptor I
T4 chain: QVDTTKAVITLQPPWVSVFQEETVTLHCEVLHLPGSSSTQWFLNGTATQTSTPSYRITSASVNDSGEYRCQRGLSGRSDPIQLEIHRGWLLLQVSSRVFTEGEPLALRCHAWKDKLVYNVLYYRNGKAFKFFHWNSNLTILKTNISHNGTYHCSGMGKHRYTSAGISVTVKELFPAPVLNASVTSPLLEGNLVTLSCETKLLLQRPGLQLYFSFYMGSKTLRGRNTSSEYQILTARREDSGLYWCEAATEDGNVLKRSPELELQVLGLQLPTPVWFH
Procedure: FcγRI, FcγRIIA, FcγRIIB, FcγRIIIA, and FcγRIIIB recombinant proteins (R & D Systems Inc., 5 μg/ml) were immobilized in 300 mM acetate buffer (pH 5) on the activated AR2G biosensor. As a running buffer, PBS containing 0.1% Tween-20 and 1% bovine serum was used. All experiments were carried out at 30° C. with a sample plate shaker at a rate of 1,000 rpm.

Binder | mast cell inhibition ratio (β-hexosaminidase release, mouse bone marrow-derived mast cells) at 0.5 ug/mL (mouse IgE) | mast cell inhibition ratio (β-hexosaminidase release, mouse bone marrow-derived mast cells) at 1 ug/mL (mouse IgE) | IC50 of mast cell inhibition (β-hexosaminidase release, human FcεRI-expressing mouse bone marrow-derived mast cells) (human IgE) | inhibitory ability on mast cell activity, fold against Xolair (human IgE) | fold difference of KD against omalizumab (printed as 'higher') (IgE) | binding result (FcγRI)
B1 | ~49.4% | ~99.4% |  |  |  | 
B2 |  |  | ~0.0112 µg/mL | 58 fold | 22 to 69 fold | no binding (tested: 4 µM)
